Experimental findings from the supplement of paper PMC10567573 are described below.

This series is described as follows: protein stability index of a GFP-peptide fusion (GPS, HEK-293T) (PSI 1-6); higher = more stable. Conditions: c terminus: a fixed tail appended.

± gives the standard deviation.
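Further: 24-mer peptide tiles fused after GFP, lentivirally expressed, FACS-sorted into six equal bins by GFP/DsRed ratio, decoded by Illumina sequencing, PSI is the read-weighted mean bin number.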

Take IVSQKQIADRAAHDESPGNNVVDI [RAB11B]: the protein stability index by setting is: (treatment: DMSO) 5.16 ± 0.12; (treatment: MLN4924 1 uM, 8 h) 5.12 ± 0.1.
Turning to IWDINNQICTVKDIKAEPQPLSPA [ATF6], the protein stability index came out at 3.96 ± 0.21 (treatment: DMSO) and 4.1 ± 0.24 (treatment: MLN4924 1 uM, 8 h).
Consider IYVKLIEECTDLQKEGEFSTCFTE [OAS1], for which the protein stability index amounted to 2.37 ± 0.2 (treatment: DMSO) and 2.26 ± 0.28 (treatment: MLN4924 1 uM, 8 h).
Regarding KCGIHSMFPLHLAALNAHSDCCRK [ANKRD44], the protein stability index is, setting by setting: (treatment: DMSO) 2.36 ± 0.2; (treatment: MLN4924 1 uM, 8 h) 2.62 ± 0.33.
The like results for KCLQGNADGDGGGGQCCRRQDSPS [PCDHGC5] were, in that order, 5.25 ± 0.29 and 5.21 ± 0.1.
With KDILGFAVMFFIVFFAYAQLGYLL [PKD2L1], the protein stability index (treatment: DMSO) was 2.81 ± 0.42 and the protein stability index (treatment: MLN4924 1 uM, 8 h) was 2.93 ± 0.54.
Regarding KDREYTDIIRKQVLGTKVDAERDG [CDC34], the protein stability index (treatment: DMSO) was 5.08 ± 0.21 and the protein stability index (treatment: MLN4924 1 uM, 8 h) amounted to 4.99 ± 0.18.
The matching figures for KDTVICAMKITQEPQGLGYWEAWR [SPACA3]: 2.27 ± 0.49 and 2.22 ± 0.23.
As to KDVKERFSGSLVAALSATGPRFLA [TMEM175], the protein stability index by setting is: (treatment: DMSO) 2.88 ± 0.55; (treatment: MLN4924 1 uM, 8 h) 2.73 ± 0.68.
On to KEAVAALPPDVTTQSVMGFDPLPP [TCF25], for which the protein stability index runs as follows: (treatment: DMSO) 4.79 ± 0.29; (treatment: MLN4924 1 uM, 8 h) 4.89 ± 0.26.
For KEMFTVGCCVFAFLVGLLFVQRSG [SLC6A17], the protein stability index came out at 2.38 ± 0.66 (treatment: DMSO) and 3.13 ± 0.61 (treatment: MLN4924 1 uM, 8 h).
KENREEARFQDKQYSSHHTAEKRK [CHGB]: the protein stability index runs as follows: (treatment: DMSO) 5.21 ± 0.41; (treatment: MLN4924 1 uM, 8 h) 4.89 ± 0.34.
The like results for KGDKCKFSHDLTLERKCEKRSVYI [ZC3H15] were, in that order, 2.74 ± 0.22 and 2.63 ± 0.067.
The matching figures for KGHNTPKDIAHFWELGGGTSLLDL [DYNC2LI1]: 3.02 ± 0.28 and 3.2 ± 0.11.
KIGDTKRNTPIEALCENFPEEMAT [CSNK1G1]: the protein stability index worked out at 5.14 ± 0.2 (treatment: DMSO) and 5.31 ± 0.2 (treatment: MLN4924 1 uM, 8 h).
Regarding KIKVRFSFFLQIYLIMIFLGLYIN [HACD3], the protein stability index is, setting by setting: (treatment: DMSO) 3 ± 0.73; (treatment: MLN4924 1 uM, 8 h) 2.29 ± 0.96.
On to KIRDWYQRQAPGPARDYSQYYRTI [KRT17], for which the protein stability index by setting is: (treatment: DMSO) 2.19 ± 0.37; (treatment: MLN4924 1 uM, 8 h) 2.42 ± 0.31.
KKFQSEKAAGSVSKSTQFEYAWCL [FIS1] came in with a protein stability index (treatment: DMSO) of 2.12 ± 0.22 and a protein stability index (treatment: MLN4924 1 uM, 8 h) of 2.33 ± 0.13.
Consider KKKAIQEEEERDQALQAKASLTIP [YJU2B], for which the protein stability index worked out at 5.27 ± 0.22 (treatment: DMSO) and 5.4 ± 0.21 (treatment: MLN4924 1 uM, 8 h).
Consider KKKKKQKNKKSSTGEASENGLEDI [TCF25], for which the protein stability index reads like this: (treatment: DMSO) 5.04 ± 0.097; (treatment: MLN4924 1 uM, 8 h) 4.49 ± 0.25.
Take KKKKTKKIKEKYIDQEELNKTKPI [HSP90AB1]: the protein stability index came to 4.28 ± 0.26 (treatment: DMSO) and 4.53 ± 0.31 (treatment: MLN4924 1 uM, 8 h).
As to KKRRAQQAPPQDSSNKKEKKVLNH [DYRK1B], the protein stability index by setting is: (treatment: DMSO) 5.2 ± 0.32; (treatment: MLN4924 1 uM, 8 h) 5.3 ± 0.13.
On to KKVYLTGFALDILFAIANGFSPSY [SLC22A15], for which the protein stability index amounted to 2.68 ± 0.28 (treatment: DMSO) and 3.42 ± 0.22 (treatment: MLN4924 1 uM, 8 h).
In the case of KLASHTRDTTGVSQMFPSSKARTK [FBF1], the protein stability index reads like this: (treatment: DMSO) 4.39 ± 0.16; (treatment: MLN4924 1 uM, 8 h) 4.58 ± 0.053.
For KLILTSSASVIFEGVDIKNGTEDL [NSDHL], the protein stability index reads like this: (treatment: DMSO) 3.13 ± 0.33; (treatment: MLN4924 1 uM, 8 h) 3.27 ± 0.22.
The matching figures for KLLKSMPILQGQIDALLEFDVHPN [SNAP91]: 2.12 ± 0.21 and 2.33 ± 0.17.
The like results for KLNEQSPTRCTLEAGAMTFHYIIE [SEC22B] were, in that order, 2.38 ± 0.75 and 2.25 ± 0.46.
Take KLSFRARAYGFRGPGPQLRRGWRP [CHGA]: the protein stability index amounted to 3.01 ± 0.2 (treatment: DMSO) and 3.08 ± 0.29 (treatment: MLN4924 1 uM, 8 h).
Regarding KNDVFICGGYNGEVILGDIWKLNL [KLHDC10], the protein stability index was 2.6 ± 0.84 (treatment: DMSO) and 2.33 ± 0.74 (treatment: MLN4924 1 uM, 8 h).
Regarding KNKMMVCQVGGIEALVRTVLRAGD [CTNNB1], the protein stability index reads like this: (treatment: DMSO) 2.51 ± 0.45; (treatment: MLN4924 1 uM, 8 h) 2.22 ± 0.21.
Take KNYFQHREFSFTLKDDIYIRYQSF [PRIM1]: the protein stability index was 2.22 ± 0.9 (treatment: DMSO) and 2.26 ± 0.87 (treatment: MLN4924 1 uM, 8 h).
Turning to KQASNLETAIADAEQRGDNALKDA [KRT71], the protein stability index worked out at 5.66 ± 0.18 (treatment: DMSO) and 5.62 ± 0.22 (treatment: MLN4924 1 uM, 8 h).
In turn, KRKMHLVFEYCDHTLLNELERNPN [CDKL4] came in with a protein stability index (treatment: DMSO) of 2.26 ± 0.46 and a protein stability index (treatment: MLN4924 1 uM, 8 h) of 2.51 ± 0.51.
Take KRRPKREKHPKKPEPQQKAPLVPP [SRPK2]: the protein stability index by setting is: (treatment: DMSO) 4.948 ± 0.035; (treatment: MLN4924 1 uM, 8 h) 4.99 ± 0.19.
With KRRVALSPVTENSTSLSFLDSCNS [MYBL2], the protein stability index came out at 3.65 ± 0.2 (treatment: DMSO) and 3.92 ± 0.34 (treatment: MLN4924 1 uM, 8 h).
On to KSALGAMGQWQLEVGDPAPLGAGN [DPCD], for which the protein stability index is, setting by setting: (treatment: DMSO) 3.98 ± 0.21; (treatment: MLN4924 1 uM, 8 h) 3.96 ± 0.27.
